These results are taken from PMC5278397.

The target of this assay is gp130 extracellular domain (UniProt P40189). The experiment in a line: SPR; gp130 extracellular domain amine-coupled on CM5; fixed excess of IL-6 and differing concentrations of gp80 (0–250 nM) with or without VHH6; 100 μl/min; 1:1 binding model; 25 °C, HBS-P+; BIAcore T200.
Chain of gp130 extracellular domain (P40189 23-619): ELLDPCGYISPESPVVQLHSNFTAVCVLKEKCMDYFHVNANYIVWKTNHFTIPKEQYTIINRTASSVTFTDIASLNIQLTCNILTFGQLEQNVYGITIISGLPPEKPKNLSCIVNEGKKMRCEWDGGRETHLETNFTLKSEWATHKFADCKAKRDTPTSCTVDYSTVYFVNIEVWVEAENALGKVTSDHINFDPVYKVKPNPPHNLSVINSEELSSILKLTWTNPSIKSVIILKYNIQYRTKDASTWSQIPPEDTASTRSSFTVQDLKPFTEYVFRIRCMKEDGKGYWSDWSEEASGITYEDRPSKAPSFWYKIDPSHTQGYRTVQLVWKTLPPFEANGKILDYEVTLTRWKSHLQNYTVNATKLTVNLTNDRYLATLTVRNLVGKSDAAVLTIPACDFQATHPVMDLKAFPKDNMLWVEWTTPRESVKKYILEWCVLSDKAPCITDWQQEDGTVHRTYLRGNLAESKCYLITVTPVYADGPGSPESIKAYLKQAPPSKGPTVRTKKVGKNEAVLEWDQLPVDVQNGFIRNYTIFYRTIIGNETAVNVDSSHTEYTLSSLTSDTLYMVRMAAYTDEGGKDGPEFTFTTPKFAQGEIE

Chain of IL-6–gp80 complex (IL-6 with gp80V4) (P05231 49-212): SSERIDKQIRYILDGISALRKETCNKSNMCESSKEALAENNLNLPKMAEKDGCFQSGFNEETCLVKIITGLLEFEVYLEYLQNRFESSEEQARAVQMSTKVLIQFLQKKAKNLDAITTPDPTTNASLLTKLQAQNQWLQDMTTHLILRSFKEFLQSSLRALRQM
Chain of IL-6–gp80 complex (IL-6 with gp80V4) (P08887 111-322): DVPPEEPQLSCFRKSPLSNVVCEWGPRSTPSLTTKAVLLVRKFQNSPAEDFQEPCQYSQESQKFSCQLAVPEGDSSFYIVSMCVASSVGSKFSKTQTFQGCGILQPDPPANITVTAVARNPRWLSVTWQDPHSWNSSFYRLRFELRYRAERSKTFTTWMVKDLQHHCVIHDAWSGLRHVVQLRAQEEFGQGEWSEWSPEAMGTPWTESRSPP

Take “IL-6–gp80 complex (IL-6 with gp80V4) (from UniProt P05231 49-212; P08887 111-322)”: the koff was found to be 0.037 s⁻¹ and the kon was found to be 360000 M⁻¹ s⁻¹.
